{"source": "patent US20260152577A1", "target": "human CD3 on T cells (human) (UniProt P07766)", "experiment": "FACS on Jurkat cells", "data": [{"substance": "OKT3-hIgG1 (antibody)", "values": [{"measurement": "affinity", "result": 0.27, "unit": "nM"}]}]}
